{"source": "paper doi:10.1101/2022.08.03.502613", "target": "γ-tubulin ring complex (γ-TuRC) purified using GCP3-GFP-SII (human (endogenous in HEK293T)) (UniProt Q96CW5)", "assay": "single-molecule colocalisation by TIRF microscopy", "data": [{"substance": "mCherry-CDK5RAP2 (full-length, human) (from UniProt Q96SN8 1-1893) (natural protein)", "values": [{"measurement": "% of CDK5RAP2-positive dots colocalizing with γ-TuRCs, with tubulin", "value": 13, "unit": "%"}, {"measurement": "% of CDK5RAP2-positive dots colocalizing with γ-TuRCs, without tubulin", "value": 41, "unit": "%"}]}]}
